One block for each binder: values may come before it. Starred links: 1 amine or outer side, 2 acyl side, 3 side chain; linkers in the order of their positions; H or OH if unused. Non-standard residues stand in square brackets, D forms with d. No end group written: not given here. F2Pmab = 2-amino-4,4-difluoro-3-methyl-4-phosphobutanoic acid, in place of p-Thr, C[C@H]([C@H](N[*:1])C(=O)[*:2])C(F)(F)P(=O)(O)O; Abu(3R-Me,4-PO3H2) = C[C@@H](CP(=O)(O)O)[C@H](N)C(=O)O; pT = C[C@@H](OP(=O)(O)O)[C@H](N)C(=O)O
Legend:
[1] = molecular target: T1, HA-EGFP-Plk1 (UniProt P53350 1-603); assay: ELISA competition (FIG. 16A)
T1 construct: also called full-length Plk1 (ELISA); not shown: HA tag and EGFP
T1 sequence (P53350 whole entry): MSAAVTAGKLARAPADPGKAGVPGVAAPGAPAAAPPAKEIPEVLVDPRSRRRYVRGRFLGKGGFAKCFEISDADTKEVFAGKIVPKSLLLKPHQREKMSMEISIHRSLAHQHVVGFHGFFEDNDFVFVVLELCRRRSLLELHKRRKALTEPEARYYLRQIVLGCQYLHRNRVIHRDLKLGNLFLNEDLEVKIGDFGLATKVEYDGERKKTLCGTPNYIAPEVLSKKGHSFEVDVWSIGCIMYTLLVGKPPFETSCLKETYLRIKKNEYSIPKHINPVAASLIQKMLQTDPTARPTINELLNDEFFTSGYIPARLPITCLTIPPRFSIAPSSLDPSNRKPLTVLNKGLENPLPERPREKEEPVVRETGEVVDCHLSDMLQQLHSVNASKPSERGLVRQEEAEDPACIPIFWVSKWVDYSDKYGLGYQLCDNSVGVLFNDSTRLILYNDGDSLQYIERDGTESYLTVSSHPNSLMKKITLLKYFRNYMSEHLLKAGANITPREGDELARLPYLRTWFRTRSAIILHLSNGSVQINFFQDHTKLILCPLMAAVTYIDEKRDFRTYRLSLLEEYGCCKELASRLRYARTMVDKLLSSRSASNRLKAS

[2] = molecular target: T1, HA-EGFP-Plk1; assay: ELISA competition on immobilised biotinylated p-T78 9-mer (FIG. 16A)
[3] = molecular target: T2, Plk1 (endogenous, in mitotic HeLa cell lysates) (UniProt P53350 2-603); assay: pull-down from mitotic HeLa lysate with bead-immobilised peptide (FIG. 13A)
T2 construct: Endogenous full-length protein in total lysate of nocodazole-arrested HeLa cells; also called polo-like kinase 1
T2 sequence (P53350 2-603 limits assumed): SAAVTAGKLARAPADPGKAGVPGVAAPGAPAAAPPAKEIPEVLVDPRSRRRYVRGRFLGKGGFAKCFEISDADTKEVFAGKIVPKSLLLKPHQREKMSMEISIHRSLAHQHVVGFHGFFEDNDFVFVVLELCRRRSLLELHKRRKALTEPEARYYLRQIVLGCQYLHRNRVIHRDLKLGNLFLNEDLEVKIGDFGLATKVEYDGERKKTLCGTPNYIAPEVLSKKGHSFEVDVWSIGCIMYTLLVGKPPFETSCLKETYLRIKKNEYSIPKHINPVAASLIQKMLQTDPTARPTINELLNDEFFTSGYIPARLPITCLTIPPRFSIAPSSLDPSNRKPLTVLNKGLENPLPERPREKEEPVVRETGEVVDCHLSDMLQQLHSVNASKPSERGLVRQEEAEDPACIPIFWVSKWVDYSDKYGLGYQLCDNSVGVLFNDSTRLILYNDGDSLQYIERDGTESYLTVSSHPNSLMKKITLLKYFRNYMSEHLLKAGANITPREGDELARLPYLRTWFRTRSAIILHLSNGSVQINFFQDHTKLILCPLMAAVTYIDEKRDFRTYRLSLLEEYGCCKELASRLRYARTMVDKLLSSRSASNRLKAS

[4] = molecular target: T3, Flag-Plk3(K52R) (UniProt Q9H4B4 40-646, K52R); assay: pull-down from mixed HeLa lysates, anti-Flag blot (FIG. 4B)
T3 construct: A gift construct; K52 may be counted on another entry than the printed human one; not shown: Flag tag
T3 sequence (Q9H4B4 40-646 K91R): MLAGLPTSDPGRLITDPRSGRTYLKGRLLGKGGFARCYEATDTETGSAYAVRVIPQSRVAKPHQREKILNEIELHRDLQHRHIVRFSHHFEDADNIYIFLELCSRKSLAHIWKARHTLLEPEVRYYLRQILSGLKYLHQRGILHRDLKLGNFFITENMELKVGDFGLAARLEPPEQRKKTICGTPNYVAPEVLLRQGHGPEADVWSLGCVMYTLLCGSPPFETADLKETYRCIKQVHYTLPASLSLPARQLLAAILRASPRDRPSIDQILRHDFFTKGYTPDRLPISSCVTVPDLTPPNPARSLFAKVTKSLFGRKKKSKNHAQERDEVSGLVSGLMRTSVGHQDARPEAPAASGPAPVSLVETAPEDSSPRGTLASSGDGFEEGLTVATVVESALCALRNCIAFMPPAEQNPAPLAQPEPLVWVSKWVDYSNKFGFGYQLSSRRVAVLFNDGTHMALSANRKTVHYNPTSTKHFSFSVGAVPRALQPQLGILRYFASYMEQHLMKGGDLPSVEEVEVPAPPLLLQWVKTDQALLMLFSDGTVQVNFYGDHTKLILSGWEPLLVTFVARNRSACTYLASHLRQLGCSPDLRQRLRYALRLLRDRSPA

[5] = molecular target: T2, Plk1 (endogenous, in mitotic HeLa cell …); assay: pull-down from mitotic HeLa lysate with bead-immobilised peptide (FIG. 4A)
[6] = molecular target: T3, Flag-Plk3(K52R); assay: assay not given; pull-downs of Examples 3 and 6
[7] = molecular target: T4, Flag-Plk2(L606F, K607R, 5608T, D609R, K610S, Y626F, H627Q) (UniProt Q9NYY3 1-685); assay: pull-down of transfected HeLa lysate with immobilised MQSpTPL (FIG. 15B)
T4 construct: 5608T is read as S608T; not shown: Flag tag
T4 sequence (Q9NYY3 whole entry L606F/K607R/S608T/D609R/K610S/Y626F/H627Q): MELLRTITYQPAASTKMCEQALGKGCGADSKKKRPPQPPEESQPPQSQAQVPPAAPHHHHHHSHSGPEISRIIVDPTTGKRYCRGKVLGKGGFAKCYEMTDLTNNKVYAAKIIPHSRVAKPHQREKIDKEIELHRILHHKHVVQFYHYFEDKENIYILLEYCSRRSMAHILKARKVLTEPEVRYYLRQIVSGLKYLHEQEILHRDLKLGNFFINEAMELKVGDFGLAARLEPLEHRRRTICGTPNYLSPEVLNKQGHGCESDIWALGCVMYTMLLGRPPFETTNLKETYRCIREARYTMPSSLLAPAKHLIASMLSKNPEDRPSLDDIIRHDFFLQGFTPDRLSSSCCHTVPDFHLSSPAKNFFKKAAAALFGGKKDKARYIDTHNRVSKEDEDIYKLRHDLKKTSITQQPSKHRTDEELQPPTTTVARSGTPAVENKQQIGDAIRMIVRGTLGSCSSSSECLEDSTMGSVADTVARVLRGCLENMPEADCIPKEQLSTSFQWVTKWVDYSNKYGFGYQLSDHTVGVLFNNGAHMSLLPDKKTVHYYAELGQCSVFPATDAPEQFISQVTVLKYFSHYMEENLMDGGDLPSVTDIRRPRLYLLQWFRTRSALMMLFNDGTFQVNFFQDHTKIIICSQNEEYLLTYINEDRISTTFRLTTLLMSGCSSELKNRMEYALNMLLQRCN

[8] = molecular target: T5, Flag-Plk2(K607R, Y626F) (UniProt Q9NYY3 1-685); assay: as above
T5 construct: not shown: Flag tag
T5 sequence (Q9NYY3 whole entry K607R/Y626F): as the sequence (Q9NYY3 whole entry L606F/K607R/S608T/D609R/K610S/Y626F/H627Q) above, with F606L, T608S, R609D, S610K, Q627H counted along it

Binder: PLHS[F2Pmab]A (also: in pull-downs N-terminal Cys-(CH2)6 linker cross-linked to beads, also called C-(CH2)6-PLHS-F2Pmab-A) [PLHS-F2Pmab-A]
binding result [1]: binds

B2: PLHS-Pmab (peptide)
peptide: PLHS[Abu(3R-Me,4-PO3H2)]
modifications: also: N-acetylated in soluble form, N-terminal Cys-(CH2)6 linker in pull-down form
notes: also called C-(CH2)6-PLHS-Pmab
binding result [4]: no binding

B3: PLHA-Pmab (peptide)
peptide: PLHA[Abu(3R-Me,4-PO3H2)]
modifications: also: N-acetylated in soluble form
notes: also called Pmab(S77A); C-(CH2)6-PLHA-Pmab
binding result [5]: no binding

The next lines start with results.

binding result [3]: no binding
B1: PLHA-F2Pmab-A (peptide)
peptide: PLHA[F2Pmab]A
modifications: also: in pull-downs N-terminal Cys-(CH2)6 linker cross-linked to beads
notes: also called F2Pmab(S77A); C-(CH2)6-PLHA-F2Pmab-A
binding result [2]: no binding (tested: 1000-fold higher molar concentrations)

binding result [6]: no binding
B4: PLHSpT (peptide)
peptide: PLHS[pT]
modifications: also: Ac and C-terminal amide in soluble form, N-terminal Cys-(CH2)6 linker in pull-down form
notes: Derived from the Thr78 region of PBIP1; also called Ac-PLHSpT-NH2; C-(CH2)6-PLHSpT

binding result [7]: no binding
binding result [8]: no binding
Binder: MQS[pT]PL (also: in pull-downs N-terminal Cys-(CH2)6 linker cross-linked to beads, also called synthetic optimal peptide) [MQSpTPL]

From patent US20120065146A1 (published 2012)
